Reference: patent publication EP3494999A1, “PSMA LIGANDS FOR IMAGING AND ENDORADIOTHERAPY” (Technische Universität München, priority 2017, dated 2019)
Square brackets hold non-standard residues; d marks the D form. Peptide text beside a SMILES is read from it. * marks the point of attachment. X1 = O=C(O)CC[C@H](NC(=O)N[C@@H](CCCCNC(=O)CCCCCCC(=O)*)C(=O)O)C(=O)O; DOTAGA = O=C(O)CN1CCN(CC(=O)O)CCN(C(CCC(=O)*)C(=O)O)CCN(CC(=O)O)CC1; dPhe(4-NH2) = Nc1ccc(C[C@@H](N)C(=O)O)cc1; dTyr(3-I) = N[C@H](Cc1ccc(O)c(I)c1)C(=O)O; Phe(4-NH2) = Nc1ccc(C[C@H](N)C(=O)O)cc1; d2Nal = N[C@H](Cc1ccc2ccccc2c1)C(=O)O

How the values were obtained:
[1] = biological target: T1, human serum albumin (HSA) (Homo sapiens, UniProt P02768); format: in vitro ADME
T1 construct: purchased Daicel Chemical Industries, purchased from Chiral Technologies Europe (France)
T1 sequence (P02768 25-609): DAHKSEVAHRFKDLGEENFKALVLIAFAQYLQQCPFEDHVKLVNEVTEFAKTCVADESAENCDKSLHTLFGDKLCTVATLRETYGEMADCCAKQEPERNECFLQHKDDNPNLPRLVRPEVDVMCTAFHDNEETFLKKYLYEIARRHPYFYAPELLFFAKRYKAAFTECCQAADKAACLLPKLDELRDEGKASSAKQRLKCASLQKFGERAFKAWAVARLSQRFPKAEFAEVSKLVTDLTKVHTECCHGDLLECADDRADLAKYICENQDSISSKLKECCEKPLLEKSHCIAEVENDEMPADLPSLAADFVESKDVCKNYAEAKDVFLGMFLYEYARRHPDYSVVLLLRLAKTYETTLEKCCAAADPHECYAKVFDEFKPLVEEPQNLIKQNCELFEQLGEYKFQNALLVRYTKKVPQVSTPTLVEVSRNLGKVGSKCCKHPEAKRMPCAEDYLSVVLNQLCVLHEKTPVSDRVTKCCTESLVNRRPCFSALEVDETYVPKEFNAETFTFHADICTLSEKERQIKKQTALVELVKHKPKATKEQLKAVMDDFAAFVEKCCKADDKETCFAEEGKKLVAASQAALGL
Source text: The Fmoc-(9-fluorenylmethoxycarbonyl-) and all other protected amino acid analogs were purchased from Bachem (Bubendorf, Switzerland) or Iris Biotech (Marktredwitz, Germany). […] The tritylchloride polystyrene (TCP) resin was obtained from PepChem (Tubingen, Germany). Chematech (Dijon, France) delivered the chelator DOTAGA-anhydride. All necessary solvents and other organic reagents were purchased from either Alfa Aesar (Karlsruhe, Germany), Sigma-Aldrich (Munich, Germany) or VWR (Darmstadt, Germany). Solid phase synthesis of the peptides was carried out by manual operation using an Intelli-Mixer syringe shaker (Neolab, Heidelberg, Germany). […] Analysis of the peptides was performed by applying different gradients of 0.1% (v/v) trifluoroacetic acid (TFA) in H2O (solvent A) and 0.1% TFA (v/v) in acetonitrile (MeCN) (solvent B) with a constant flow of 1 mL/min (specific gradients are cited in the text). […] Human serum albumin (HSA) binding was determined using a Chiralpak HSA 50 x 3 mm 5µm Analytical Column connected to a Chiralpak HSA 10 x 3 mm 5µm Guard Cartridge (Daicel Chemical Industries) purchased from Chiral Technologies Europe (France). Nonlinear regression for the HSA binding was performed using OriginPro 2016G. Both retention times tR as well as the capacity factors K' are cited in the text. […] Radioactivity was detected through connection of the outlet of the UV-photometer to a Nal(TI) well-type scintillation counter from EG&G Ortec (Munich, Germany). […] ESI-mass spectra were acquired on an expression^L CMS mass spectrometer (Advion Ltd., Harlow, UK) and on a Varian 500-MS IT mass spectrometer (Agilent Technologies, Santa Clara, USA). For the HSA binding experiment a Chiralpak HSA 50 x 3 mm 5µm Analytical Column, (Daicel Chemical Industries, LTD) connected to a Chiralpak HSA 10 x 3 mm 5µm Guard Cartridge (Daicel Chemical Industries; Chiral Technologies Europe) was used.
The mobile phase was freshly prepared for each experiment and only used for one day. The column was kept at room temperature and each run was stopped after detection of the signal to reduce the acquisition time. All substances were dissolved in a 0.5mg/ml concentration in 50% 2-Propanol and 50% 50mM pH 6.9 ammonium acetate buffer. […] All nine reference substances were injected consecutively to establish a non-linear regression with OriginPro 2016G. […] Table 1: Reference substances used for the calibration of the HSA-column.

[2] = format: physicochemical
Description: To a volume of 500 µL n-octanol, 0.5 to 1.0 MBq of the radiolabeled PSMA inhibitor in 500 µL PBS (pH = 7.4) was added and rigorously vortexted for 3 min (n = 6). For quantitative phase separation, the mixture was centrifuged at 6,000 g for 5 min (Biofuge 15, Heraus Sepatech, Osterode, Germany).

[3] = design: species or system SCID mice; settings: mouse, in vivo
Description: (§1) All animal experiments were carried out in accordance with the general animal welfare regulations in Germany (Deutsches Tierschutzgesetz, approval #55.2-1-54-2532-71-13). For the tumor model, LNCaP cells (approx. 10^7 cells) were suspended 1:1 in serum-free DMEM-F12 medium and Matrigel (BD Biosciences, Germany) and inoculated onto the right shoulder of male, 6 to 8 weeks old CB-17 SCID mice (Charles River Laboratories, Sulzfeld, Germany). Animals were used after the tumor size reached 4 to 8 mm in diameter for experiments.
Imaging experiments were conducted using a Siemens Inveon small animal PET and data analyzed by the associated Inveon Research Workplace software. Mice were anaesthetised with isoflurane and the ^68Ga-radiolabeled PSMA inhibitors (0.2 nmol, 7.0 to 12 MBq) were injected via tail vein. Dynamic imaging was carried out after on-bed injection for 90 min. The static blockade image was obtained, after 1 h p.i. with 15 min acquisition time. Blockade was done by coinjection of 8mg/kg of PMPA. All images were reconstructed using an OSEM3D algorithm without […] and attenuation correction.

[4] = system: LNCaP xenograft; design: species or system SCID mice; settings: mouse, in vivo
Description: as §1

| SMILES | HSA [%] [1] [%] | logP [2] | kidney clearance [3] | Increased tumor uptake [4] |
| --- | --- | --- | --- | --- |
| Nc1ccc(C[C@@H](NC(=O)CCC(C(=O)O)N2CCN(CC(=O)O)CCN(CC(=O)O)CCN(CC(=O)O)CC2)C(=O)N[C@H](Cc2ccc(O)c(I)c2)C(=O)N[C@H](Cc2ccccc2)C(=O)N[C@H](CCCCNC(=O)CCCCCCC(=O)NCCCC[C@H](NC(=O)N[C@@H](CCC(=O)O)C(=O)O)C(=O)O)C(=O)O)cc1 (stereo partly drawn) [[^nat/177Lu]PSMA-2, DOTAGA-(4-NH2)f-(l-y)-f-k-KuE, metal not drawn] ({DOTAGA}-[dPhe(4-NH2)][dTyr(3-I)][dF][dK](X1)-OH) | 82.5 | -4.11 ± 0.06 | accelerated kidney clearance |  |
| Nc1ccc(C[C@H](NC(=O)CCC(C(=O)O)N2CCN(CC(=O)O)CCN(CC(=O)O)CCN(CC(=O)O)CC2)C(=O)N[C@H](Cc2ccc(O)c(I)c2)C(=O)N[C@H](Cc2ccccc2)C(=O)N[C@H](CCCCNC(=O)CCCCCCC(=O)NCCCC[C@H](NC(=O)N[C@@H](CCC(=O)O)C(=O)O)C(=O)O)C(=O)O)cc1 (stereo partly drawn) [[^nat/177Lu]PSMA-3, DOTAGA-(4-NH2)F-(l-y)-f-k-KuE, metal not drawn] ({DOTAGA}-[Phe(4-NH2)][dTyr(3-I)][dF][dK](X1)-OH) | 91.9 |  |  | about 200% |
| O=C(O)CC[C@H](NC(=O)N[C@@H](CCCCNC(=O)CCCCCCC(=O)NCCCC[C@@H](NC(=O)[C@@H](Cc1ccc2ccccc2c1)NC(=O)[C@@H](Cc1ccc(O)cc1)NC(=O)CCC(C(=O)O)N1CCN(CC(=O)O)CCN(CC(=O)O)CCN(CC(=O)O)CC1)C(=O)O)C(=O)O)C(=O)O (stereo partly shown) [[^nat/177Lu]PSMA-4, DOTAGA-y-nal-k-KuE, metal not drawn, reference compound] | 82.6 | -4.11 ± 0.06 |  |  |
| Nc1ccc(C[C@H](NC(=O)CCC(C(=O)O)N2CCN(CC(=O)O)CCN(CC(=O)O)CCN(CC(=O)O)CC2)C(=O)N[C@H](Cc2ccc(O)cc2)C(=O)N[C@H](Cc2ccc3ccccc3c2)C(=O)N[C@H](CCCCNC(=O)CCCCCCC(=O)NCCCC[C@H](NC(=O)N[C@@H](CCC(=O)O)C(=O)O)C(=O)O)C(=O)O)cc1 (stereo partly shown) [[^nat/177Lu]PSMA-6, DOTAGA-(4-NH2)F-y-nal-k-KuE, metal not drawn] ({DOTAGA}-[Phe(4-NH2)][dY][d2Nal][dK](X1)-OH) | 83.17 |  |  |  |
| O=C(O)CC[C@H](NC(=O)N[C@@H](CCCCNC(=O)[C@@H](Cc1ccc(I)cc1)NC(=O)CCCC(=O)NCCCC[C@@H](NC(=O)[C@@H](Cc1ccc2ccccc2c1)NC(=O)[C@@H](Cc1ccc(O)cc1)NC(=O)CCC(C(=O)O)N1CCN(CC(=O)O)CCN(CC(=O)O)CCN(CC(=O)O)CC1)C(=O)O)C(=O)O)C(=O)O (stereo partly drawn) [[^nat/177Lu]PSMA-10, DOTAGA-y-nal-k(Glut-(l-f)-KuE), metal not drawn, reference compound] | 96.61 | -3.05 ± 0.02 |  |  |
